System: MS2 coat protein
Assay: apparent KD of MS2 coat protein; designed switch direction (-1 OFF switch, 1 ON switch): -1; higher = weaker reporter binding
Method in brief: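 Each step of the titration lasted 0.8–1.5 h at the lowest concentration and 10–20 min at the highest. The protein, SNAP-549-labelled MS2 coat protein, went from 0.7 or 1.5 nM doubling to 3 µM over RNA switches transcribed on Illumina chips by stalled E. coli RNA polymerase. Normalised cluster fluorescence was curve-fitted, and the per-design median over clusters is given as apparent KD.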

[1] = Eterna round: R95, input ligand: microRNA oligo, concentration not stated
[2] = input ligand: microRNA oligo, concentration not stated
[3] = Eterna round: R95, input ligand: FMN 200 uM
[4] = Eterna round: R95, input ligand: none

Sequence	apparent KD of MS2 coat protein [1] [nM]	apparent KD of MS2 coat protein (input ligand: FMN 200 uM) [nM]	apparent KD of MS2 coat protein [2] [nM]	apparent KD of MS2 coat protein (input ligand: none) [nM]	apparent KD of MS2 coat protein [3] [nM]	apparent KD of MS2 coat protein [4] [nM]
GGCAGCUCAGGAUAUAGUUAAAACGACAUGAGGAUCACCCAUGUGACUGAUAUGCGGCGCCUAGAAGGGAGGUGCC [Xeusisso] (puzzle: Exclusion 5)	14.6	–	–	–	–	–
ACAUGAGGAUCACCCAUGUGCACGUAAUGGCUCAUGUAGAGUGAGGAUAUGCGUGGCGAACUCGCGCAGAAGGCACAAGACUGG [Deportation 19 - Jieux - Exclusion NG 3] (Eterna round: R96, puzzle: Exclusion NG 3)	–	88.8	65.9	82.5	–	–
UUCGCAAAAUUAGGUCCUAACAUGAGGAUCACCCAUGUUCUAGGUAAGUGCCUCCGCCCGCUAACUGUUCGUCUUGU [Eternabot (L1) Solution 36] (Eterna round: R97, puzzle: Sensor, turn-off variant 1)	–	23.1	–	24.9	–	–
AACUUACAUGAGGAUCACCCAUGUCAGGAUAUCGAAAUUGGCCUGCAAUUACAGGCGACGAGAAGGGACGUUUU [EX1 B.24] (Eterna round: R97, puzzle: Exclusion 1)	–	29.3	–	16.9	–	–
CGUGGAUGAAAGGAUAUUGAGGUCUGACUGCCACAAGAAGGUUCAACAUGAGGAUCACCCAUGUCUGAUCCUAA [Xeanorti] (Eterna round: R97, puzzle: Exclusion 6)	–	47.4	–	14.2	–	–
AUAUUGAUAGUAAGGAUAUGCGUGUGUGUAGUGAUGCAGAAGGUACAUGAGGAUCACCCAUGUAUUAAUGUGUG [LRO-BmodExc4-10-Oppy's Opus] (Eterna round: R97, puzzle: Brourd's mod of Exclusion 4)	–	20.5	–	16.7	–	–
UUGUUGUGUGUAGGAUAUGCAUAUUAUUAUUAUGCAGAAGGACAUGAGGAUCACCCAUGUGUAUUAUUAUUAUAUAUUAUAUAU [Title] (Eterna round: R96, puzzle: Exclusion NG 1)	–	–	18.3	–	–	–
ACUUAUAGAGGAUAUACAGAAUAUUACAUGAGGAUCACCCAUGUUCUUCAAUGUAUAUUUGUAGAAGGCUAAGGAA [EX-5 Malc#7] (Eterna round: R96, puzzle: Exclusion 5)	–	–	46.6	–	–	–
UAUAUAUAGUAAGGAUAUGUAUAUAUUAUAUAAACAGAAGGUACUGACAUGAGGAUCACCCAUGUUUUAGUGUGGGCAUGUAGA [JMF's solution 60] (Eterna round: R96, puzzle: Exclusion NG 1)	–	–	53.3	–	–	–
CCUAGUUGGUAAGGAUAUCCUACACUAUUCUGACCCGUGCAAGCUACAUGAGGAUCACCCAUGUGGGAGAAGGUGCGUCAACGU [Design 10] (Eterna round: R96, puzzle: Exclusion NG 2)	–	21.3	18.2	23.8	–	–
CUGAUGUUAGGAUAUCAGGCGCCCGCCACUGGCAAGGCGCAUGAGAAGGGACAUGAGGAUCACCCAUGUAGUAA [Maquraan] (puzzle: Exclusion 4)	21.5	–	–	–	–	–
GUCACUAGAGGAUAUACAAUGGUAUAUGAUCCUAGUGACAAACAUGAGGAUCACCCAUGUAGAAGGCUAGUAAA [Exclusion 2 - 2] (puzzle: Exclusion 2)	28.3	–	–	–	24.5	28
UCUAUUUUGCGAGGAUAUCGACCAUUCCUCUUUACAUGAGGAUCACCCAUGUUCUUUUUCUACAACGAGAAGGCGCUCUAAGUU [JR_ExcNG2_Sub061] (Eterna round: R96, puzzle: Exclusion NG 2)	–	71.9	65	59.1	–	–
CCCGGGUCAGGAUAUCACUUAAGCGCAGUGAGCGUCUGAGAUGAGAAGGGACAUGAGGAUCACCCAUGUGUGGC [Eternabot (L2) Solution 66] (Eterna round: R97, puzzle: Exclusion 4)	–	456	–	93.7	–	–
UACAUGAGGAUCACCCAUGUUUUGUCGUGUAUGGUAUUUAUCUAGGAUAUCAUUCUAUUUAUUUAUGAGAAGGAGAAUAUUAAU [JMF's solution 98] (Eterna round: R96, puzzle: Exclusion NG 3)	–	33.4	23.5	29.7	–	–
AAGAAUGAAGGAUAUACAUGAGGAUCACCCAUGUAAAAAAAAUUUUUUAGUUUUUCAUGUAGAAGGUCAAGAAG [JR_Exclusion3_Sub001] (puzzle: Exclusion 3)	41.8	–	–	–	47.9	43.6
GUCGUGACCAAGGAUAUAGCUAGGGAAGGAAAGUUAGAAGGUGGUACAUGAGGAUCACCCAUGUAGUCCACAAA [Dixeatleve] (puzzle: Exclusion 6)	13	–	–	–	13.1	12.9
GGAUCGAGUGUGAGGAUAUGCUGGUCCUUGGAUCAGCAGAAGGCACAUGAGGAUCACCCAUGUGAUACCGAUCC [Eli bmx4 4.67] (Eterna round: R97, puzzle: Brourd's mod of Exclusion 4)	–	736	–	71	–	–

Sequence	apparent KD of MS2 coat protein [1] [nM]	apparent KD of MS2 coat protein (input ligand: FMN 200 uM) [nM]	apparent KD of MS2 coat protein [2] [nM]	apparent KD of MS2 coat protein (input ligand: none) [nM]	apparent KD of MS2 coat protein [3] [nM]	apparent KD of MS2 coat protein [4] [nM]
UUUUAGUCAGGAUAUACAUGAGGAUCACCCAUGUAAAAUUUUAAUUUAAUUUUAAGGUGUAGAAGGGACCACCC [Ex3 #14] (Eterna round: R97, puzzle: Exclusion 3)	–	31.2	–	35.5	–	–
CCUCCACAUGAGGAUCACCCAUGUCAGGAUAUCGUGUGUUUUUUUUCGGUCUUGCGUGCGAGAAGGGACGUCUU (puzzle: Exclusion 1)	32.5	–	–	–	–	–
CUGAGCUGAGGAUAUACAUGAGGAUCACCCAUGUUUUGUAGCUAGUGAAGAAGUAGAUGUAGAAGGCAGUUCGG [Mod of JL 25 - Jieux - Exclusion 3] (Eterna round: R97, puzzle: Exclusion 3)	–	167	–	72.8	–	–
ACAUUGAAUGUGAGGAUAUCGAUGUGAUGGGUUGUCGAGAAGGCACAUGAGGAUCACCCAUGUGGGAAACAGCA [JR_BMEx4_Sub031] (Eterna round: R97, puzzle: Brourd's mod of Exclusion 4)	–	127	–	44.6	–	–
GCACGAAGUGUAGGAUAUCUGUGCGAUUAGCUCAGAGAAGGACACAUGAGGAUCACCCAUGUGUUCCAGCGAAAGCAAACGUGC [Eli exng1 - 055] (Eterna round: R96, puzzle: Exclusion NG 1)	–	9.68	7.78	12.9	–	–
UUUAAUUUUUUUUUUUUACAAGCUUUUUGCUCGUCUUAUACAUGAGGAUCACCCAUGUAGGUGGAGGAUAAAUUAUC [JMF 36] (puzzle: Sensor v3, turn-off variant 2)	56.1	–	–	–	23.5	25.5
CGGGCAUGAGGAUAUCGAGGUUAGUACAUGAGGAUCACCCAUGUUAUCCAGGUGUCGGUUCGAGAAGGCAUGGCCG [LRO-Ex5-11] (puzzle: Exclusion 5)	230	–	–	–	464	340
AAAUCCGCUGAGGAUAUUAUCAGUGAGAGCUGAUGAGAAGGCGGUACAUGAGGAUCACCCAUGUCUAUGGGCAA [Ex-6 Malc#25] (puzzle: Exclusion 6)	208	–	–	–	358	295
AUAAUGUCAGGAUAUCGAACUUACUACCUCGGUAGUAAGUUCGAGAAGGGACAUGAGGAUCACCCAUGUGAUCA [E4/1-A5] (Eterna round: R97, puzzle: Exclusion 4)	–	68.5	–	195	–	–
AUUUAUGGAGGAUAUACUUGAGGAUCACCCAAGUGGAGUCCCGUUUGGGCGGUAAAUAGUAGAAGGCCGUCCUA [jl-ex3-4.47 ViennaUCT mod] (Eterna round: R97, puzzle: Exclusion 3)	–	15.7	–	14.2	–	–
CGGUGUAGAGGAUAUACGUGGAUGUAAAUUCAUGAUAUUUUACAUGAGGAUCACCCAUGUAGAAGGCUAUAGCG [JR_Ex2_Sub078] (Eterna round: R97, puzzle: Exclusion 2)	–	74.2	–	229	–	–
UUGUUCAGAGGAUAUACAUGAGGAUCACCCAUGUGUUUCAGCUAGGAGACUAGCGAAAGUAGAAGGCUGUACUC [salish99_ex3_r4_016] (Eterna round: R97, puzzle: Exclusion 3)	–	30.5	–	25.6	–	–
GUACUGACAGGAUAUACAUGAGGAUCACCCAUGUCCUUAUGCUGACAAAAGUCAGCAAGUAGAAGGGUCUGUAC [Omei Ex3 Model Bachelor's Dilema v2] (Eterna round: R97, puzzle: Exclusion 3)	–	1270	–	88.4	–	–
CGUAGCAAAGUGAGGAUAUCUAGAGCGAUAGCUCUAGAGAAGGCACAUGAGGAUCACCCAUGUGAUUAGCUACG [BmEx4/9-A4] (Eterna round: R97, puzzle: Brourd's mod of Exclusion 4)	–	146	–	27.8	–	–
AACCCUGAUGACAAAUUACAUGAGGAUCACCCAUGUGCCUCACAGGAUAUCCCAGCACGUCGCUAGGAGAAGGGUGACGCGCCA [Tienen] (Eterna round: R96, puzzle: Exclusion NG 3)	–	37.5	25.1	30	–	–
GAUUGACAUGAGGAUCACCCAUGUGAGGAUAUCGGCUGGACCGUGUUGGCUUGCCUCUCGAGAAGGCGCAUAGG [Exclusion 1 V52] (puzzle: Exclusion 1)	35	–	–	–	38.8	43.8
UCAUGUUUAGAGGAUAUGAUUACUCUAGAGUGAUCAGAAGGCUAGACAUGAGGAUCACCCAUGUCAUAACAUGA [Exclusion 6 - B - 16:a] (puzzle: Exclusion 6)	85.7	–	–	–	56.3	127

— the supplement of paper PMC9170038
